Assay results taken from the Human Domainome abundance scans (Beltran et al. 2025).

B1: Formin-binding protein 4, residues 593 to 636; numbered along this chain, Q8N3X1 (parent)
chain: EINATPKGWSCHWDRDHRRYFYVNEQSGESQWEFPDGEEEEEES
B2: DnaJ homolog subfamily C member 2, residues 451 to 503; numbered along this chain, Q99543 (parent)
chain: SKNWSEDDLQLLIKAVNLFPAGTNSRWEVIANYMNIHSSSGVKRTAKDVIGKA

Variants of: B1
Assay: abundance fitness (aPCA) (normalised: wild type 0, dead -1); higher = more abundant; growth selection in yeast, the domain comes from the species named
Conditions: Homo sapiens

Abundance fitness: each site, then its substitutions
E40: G 0.012; Y 0.114; V 0.056; Q -0.033; K -0.004; N -0.057
S27: G -0.458; E -0.427; C -0.681; A -0.611
S10: R -0.265; H -0.502; P -0.91
R18: H -0.11; P -0.635; V -0.421; C -0.183; M -0.124; G 0.063
N24: Q -0.41; L -1; D -0.362; S -0.315; K -0.23; M -0.984; V -1.08; W -0.726
V23: L -0.024; P -0.736; G -0.607; C -0.765; E -0.26; R -0.039
E25: V -0.17; K 0.477; D 0.144; P -0.449; W -0.648
E41: G 0.041; A 0.012; K -0.048; L -0.1; V 0.042; Y -0.502; T -0.011; D -0.28; M -0.064

Variants of: B2
Assay: as above
Conditions: Homo sapiens

Abundance fitness, by site and new letter:
L9: A -0.014; D 0.156; C -0.052
K2: H -0.214; M -0.076; Q -0.375; R -0.184; E -0.096; L -0.287; I 0.1; W -0.334; N 0.076; G -0.159; T -0.017; Y -0.138; D -0.044; S -0.059; F -0.314; V -0.365; A -0.259; C -0.274
S5: D -0.676; M -0.514; Y -0.715; T -0.014; V -0.676; C -0.286; A -0.747; F -0.654
N3: R -0.338; S -0.234; I 0.021; H -0.025; K -0.441; G -0.459; T -0.114; E -0.554; L -0.12; F -0.037; C -0.247; P -0.159; D 0.015; W -0.491; V -0.227
W4: V -0.908; F -0.104; E -0.825; M -0.06; Q -0.704; T -0.621; I -0.465; A -0.639; S -0.599; Y -0.341; D -0.808; P -0.828; K -0.758; R -0.777; L -0.229; C -0.704
S1: F -0.112; V -0.063; A -0.372; G 0.092; M -0.364; L -0.32; Y -0.37; T -0.086; C -0.261; H -0.348; P -0.547; W -0.721
D8: R -0.453; M -0.844; Y -0.712; Q -0.559; T -0.186; A -0.977; V -0.937; E -0.081; S -0.615; K -0.422; I -0.534; N -0.757; C -0.732; P -1.06
D7: S 0.042; Y -0.369; L -0.047; K -0.04; F -0.308; T -0.005; A 0.106; R 0.015; P -0.045; Q 0.063; N -0.114; V -0.054; E 0.086; M 0.037; C -0.889; H -0.257; I -0.19; G -0.015; W -0.437
E6: L -0.404; T -0.175; G -0.155; V -0.121; K -0.679; F 0.038; P 0.107; Y -0.186; Q -0.055; R -0.543; M -0.366; D -0.154; C 0.051; S 0.074; H -0.615
